One series relates to PAXF1657 tumors. As to the kind of experiment: PAXF1657 pancreas cancer PDX model. The class given is in vivo, NMRI nu/nu mice. Here is the method: Human pancreas tumor tissue was subcutaneously implanted in the left flank of 5-7 weeks old female NMRI nu/nu mice. […] At day of randomization (day 0), the 3 ADCs were dosed intravenously (i.v.) at either 4 mg/kg or 2 mg/kg, and the control group received a single dose of IgG1-b12 (4 mg/kg). Tumor volumes (mm^3) were monitored twice weekly and were calculated from caliper (PLEXX) measurements as: 0.52×(length)×(width)^2.

Series [1] in a line: Pre-clinical PK studies in cynomolgus monkey. The class given is in vivo. The text has this: Data from 5 in-vivo pre-clinical studies, shown in the Table below, were provided, containing measurements of the plasma ADC level, plasma IgG level, and plasma MMAE level (only measured in study 5).
All studies appeared to show a significant drop in plasma concentrations of ADC/IgG after the 2nd dose when compared to the first dose, which corresponded with an ADA response. As this is a fully human antibody, ADA response are only very rarely expected to occur in humans. Therefore, only data after the first dose were included in the data preparation and subsequently modelled.

The subject of series [2] is LCLC-103H xenograft tumors. Description: Therapeutic treatment of SC LCLC-103H tumor xenografts (Example 3). The class given is in vivo, SCID mice. The note with it: for tumor volume versus control IgG1-b12: day 30, One Way ANOVA (Dunnett's); for anti-tumor activity in established SC LCLC-103H tumors: single i.p. injection 1 mg/kg, SCID mice. The procedure: The in vivo efficacy of MMAE-conjugated anti-AXL antibodies was determined in established subcutaneous (SC) LCLC-103H xenograft tumors in SCID mice. 5×10^6 LCLC-103H (large cell lung carcinoma) tumor cells (obtained from Leibniz-Institut DSMZ-Deutsche Sammlung von Mikroorganismen and Zellkulturen GmbH (DSMZ)) in 200 μL PBS were injected subcutaneously in the right flank of female SCID mice. Starting 14-21 days after tumor cell inoculation, when the average tumor size was >100-200 mm^3 and distinct tumor growth was observed, a single injection with 1 mg/kg (20 μg/mouse) IgG1-AXL-vcMMAE antibodies or control (unconjugated IgG1-b12) was given intraperitoneally (100 μL/mouse). Tumor volume was determined at least two times per week. Tumor volumes (mm^3) were calculated from caliper (PLEXX) measurements as: 0.52×(length)×(width)^2.

A further series relates to A431 tumors. Description: A431 xenograft model (high Gas6). The class given is in vivo. Particulars: 3 mg/kg i.p., SCID mice. The procedure:
(§1) Tumor induction was performed by subcutaneous injection of 5×10^6 A431 or LCLC-103H tumor cells (both obtained from Leibniz-Institut—Deutsche Sammlung von Mikroorganismen and Zellkulturen GmbH (DSMZ)) in 200 μL PBS in the right flank of female SCID mice. Treatment was started 14-21 days after tumor cell inoculation, when the average tumor size was >100-200 mm^3 and distinct tumor growth was observed. Mice received a single injection or a total of 4 biweekly intraperitoneal injections with IgG1-AXL-vcMMAE ADCs or control antibody (unconjugated IgG1-b12), as indicated. Tumor volume was determined at least two times per week. Tumor volumes (mm^3) were calculated from caliper (PLEXX) measurements as: 0.52×(length)×(width)^2.

A further series relates to LCLC-103H tumors. Description: LCLC-103H xenograft model (low Gas6, Example 5). The class given is in vivo. The note with it: 3 mg/kg i.p., SCID mice. Here is the method:
as §1

The test system of another series is CEXF 773 tumors. As to the kind of experiment: Cervix carcinoma PDX model CEXF 773. The class given is in vivo, NMRI nu/nu mice. The note with it: for anti-tumor activity on CEXF 773 tumors: 4 mg/kg i.v. day 0 and day 7; for average tumor size versus IgG1-b12 and IgG1-b12-vcMMAE: day 28, 4 mg/kg i.v. day 0 and 7, p<0.001. The procedure: The anti-tumor activity of IgG1-AXL-183-vcMMAE and IgG1-AXL-726-vcMMAE was evaluated in the patient derived cervix carcinoma xenograft CEXF 773 model in NMRI nu/nu mice (Harlan, Netherlands). Experiments were performed by Oncotest (Freiburg, Germany).
Tumor fragments were obtained from xenografts in serial passage in nude mice. After removal from donor mice, tumors were cut into fragments (4-5 mm diameter) and placed in PBS (with 10% penicillin/streptomycin) until subcutaneous implantation. Mice under isofluorane anesthesia received unilateral, subcutaneous tumor implants in the flank. Tumors were allowed to grow until the tumor volume was 50-250 mm^3.
The treatment groups were: IgG1-b12, IgG1-b12-vcMMAE, IgG1-AXL-183-vcMMAE and IgG1-AXL-726-vcMMAE. The antibodies and ADCs were dosed intravenously (i.v.) at 4 mg/kg on the day of randomization (day 0) and on day 7. Tumor volumes (mm^3) were monitored twice weekly and were calculated from caliper (PLEXX) measurements as: 0.52×(length)×(width)^2.

The subject of a further series is MDA-MB-231 tumors. Description: Orthotopic MDA-MB-231 D3H2LN breast cancer xenograft model. The class given is in vivo, SCID mice. The note with it: for anti-tumor activity on MDA-MB-231 tumors: 4 biweekly doses of 3 mg/kg; for average tumor size versus IgG1-b12 and IgG1-b12-vcMMAE: day 32, 4 biweekly doses of 3 mg/kg, P<0.001 One Way Anova. Here is the method: The anti-tumor activity of IgG1-AXL-183-vcMMAE and IgG1-AXL-726-vcMMAE was evaluated in an orthotopic MDA-MB-231 D3H2LN xenograft model.
MDA-MB-231-luc D3H2LN Bioware cells (mammary gland adenocarcinoma; Perkin Elmer, Waltham, Mass.) were implanted in the mammary fat pad of 6-11 week old, female SCID (C.B-17/IcrPrkdc-scid/CRL) mice (Charles-River) under isofluorane anesthesia. Tumors were allowed to grow and mice were randomized when tumors reached a volume of ˜325 mm^3. […] The treatment groups were: IgG1-b12, IgG1-b12-vcMMAE, IgG1-AXL-183-vcMMAE and IgG1-AXL-726-vcMMAE. The animals received a total of 4 biweekly doses of 3 mg/kg antibody or ADC starting at the day of randomization. Tumor volumes (mm^3) were monitored twice weekly and were calculated from caliper (PLEXX) measurements as: 0.52×(length)×(width)^2.

B1: IgG1-AXL-148 (antibody, V domains shown)
VH: EVQLLESGGGLVQPGGSLRLSCAASGFTFSSYAMTWVRQAPGKGLEWVSAISISGGSTFYADSVKGRFTISRDNSKNTLYLQMNSLRAEDTAVYYCRGYSGYVYDAFDFWGQGTMVTVSS
VL: DIQMTQSPSSLSASVGDRVTITCRASQGISNWLAWYQQKPEKAPKSLIYAASSLQSGVPSRFSGSGSGTDFTLTISSLQPEDFATYYCQQYNSYPLTFGGGTKVEIK
For the molecule B1, in the series with PAXF1657 tumors (dose not given), the “anti-tumor activity in the PAXF1657 model” value is on record as “did not result in anti-tumor activity”. For the same molecule, the “pharmacokinetic properties, unconjugated antibody (study 3) versus ADC (study 2)” value in series [1] was “similar”.

B2: IgG1-AXL-511-vcMMAE: anti-AXL antibody 511 (VH SEQ ID No 136, VL SEQ ID No 140) conjugated to vcMMAE (conjugate)
VH: EVQLLESGGGLVQPGGSLRLSCAASGFTFSSYAMNWVRQAPGKGLEWVSGISGSGGHTYHADSVKGRFTISRDNSKNTLYLQMNSLRAEDTAVYYCAKDRYDILTGYYNLLDYWGQGTLVTVSS
VL: DIQMTQSPSSLSASVGDRVTITCRASQGISSWLAWYQQKPEEAPKSLIYAASSLQSGVPSRFSGSGSGTDFTLTISSLQPEDFATYYCQQYNSYPLTFGGGAKVEIK
modifications: vc-MMAE conjugate; homo sapiens
As to B2, the “tumor volume versus control IgG1-b12” value in series [2] (1 mg/kg single i.p.) is listed as “significant tumor growth inhibition”. Moreover, in series [2], the “anti-tumor activity in established SC LCLC-103H tumors” value is on record as “induced tumor growth inhibition”.

B3: IgG1-AXL-726-M101L-vcMMAE: anti-AXL antibody 726-M101L (VH SEQ ID No 32, VL SEQ ID No 33) conjugated to vcMMAE (conjugate)
VH: QVQLQQWGAGLLKPSETLSLTCAIDGGSFSGYYWSWIRQPPGKGLEWIGEISHSGRTNYNPSLKSRVTISIDTSKNQFSLKLSSVAAADTAVYYCARFITLIRGAIITHFDYWGQGALVTVSS
VL: DIQMTQSPSSLSASVGDRVTITCRASQGISSWLAWYQQKPEKAPKSLIYAASSLQSGVPSRFSGSGSGTDFTLTISSLQPEDFATYYCQQYHSYPYTFGQGTKLEIK
modifications: vc-MMAE conjugate; homo sapiens
Consider B3, for which the “tumor volume versus control IgG1-b12” value in series [2] (1 mg/kg single i.p.) was “not significant affected”. Moreover, in series [2], the “anti-tumor activity in established SC LCLC-103H tumors” value was “no or only minor tumor growth inhibition”.

B4: IgG1-AXL-726-vcMMAE: anti-AXL antibody 726 (FN2-binder) conjugated to vcMMAE (conjugate)
VH: QVQLQQWGAGLLKPSETLSLTCAIDGGSFSGYYWSWIRQPPGKGLEWIGEISHSGRTNYNPSLKSRVTISIDTSKNQFSLKLSSVAAADTAVYYCARFITMIRGAIITHFDYWGQGALVTVSS
VL: DIQMTQSPSSLSASVGDRVTITCRASQGISSWLAWYQQKPEKAPKSLIYAASSLQSGVPSRFSGSGSGTDFTLTISSLQPEDFATYYCQQYHSYPYTFGQGTKLEIK
With B4, the “anti-tumor activity on A431 tumors” value with A431 tumors is “induced growth inhibition”. For the same molecule, the “anti-tumor activity in the LCLC-103H xenograft model” value in the series with LCLC-103H tumors is given as “induced tumor regression”. In the series with CEXF 773 tumors, the “anti-tumor activity on CEXF 773 tumors” value is “induced tumor regression”; the “average tumor size versus IgG1-b12 and IgG1-b12-vcMMAE” value is on record as “significantly smaller”. Besides, in the series with MDA-MB-231 tumors, the “anti-tumor activity on MDA-MB-231 tumors” value is listed as “induced tumor regression”; the “average tumor size versus IgG1-b12 and IgG1-b12-vcMMAE” value is recorded as “significantly smaller”.

B5: IgG1-AXL-183-N52Q-vcMMAE: anti-AXL antibody 183-N52Q (VH SEQ ID No 17, VL SEQ ID No 18) conjugated to vcMMAE (conjugate)
VH: QVQLQQWGAGLLKPSETLSLTCAVYGGSFSGYYWSWIRQPPGKGLEWIGEIQQSGSTNYNPSLKSRVTISVDTSKNQFSLKLSSVTAADTSVYYCASGNWDHFFDYWGQGTLVTVSS
VL: DIQMTQSPSSVSASVGDRVTITCRASQGISSWLAWYQHKPGKAPKLLIYATSSLQSGVTSRFSGSGSGTDFTLTISSLQPEDFATYYCQQAKSFPWTFGQGTKVEIK
modifications: vc-MMAE conjugate; homo sapiens
As to B5, the “tumor volume versus control IgG1-b12” value in series [2] (1 mg/kg single i.p.) is “not significant affected”. Besides, in series [2], the “anti-tumor activity in established SC LCLC-103H tumors” value is given as “no or only minor tumor growth inhibition”.

B6: IgG1-AXL-183-vcMMAE: anti-AXL antibody 183 (FN1-binder) conjugated to vcMMAE (conjugate)
VH: QVQLQQWGAGLLKPSETLSLTCAVYGGSFSGYYWSWIRQPPGKGLEWIGEINQSGSTNYNPSLKSRVTISVDTSKNQFSLKLSSVTAADTSVYYCASGNWDHFFDYWGQGTLVTVSS
VL: DIQMTQSPSSVSASVGDRVTITCRASQGISSWLAWYQHKPGKAPKLLIYATSSLQSGVTSRFSGSGSGTDFTLTISSLQPEDFATYYCQQAKSFPWTFGQGTKVEIK
Turning to B6, the “anti-tumor activity on A431 tumors” value in the series with A431 tumors is reported as “induced growth inhibition”. Moreover, in the series on LCLC-103H tumors, the “anti-tumor activity in the LCLC-103H xenograft model” value was “induced tumor regression”. Also, in the series with CEXF 773 tumors, the “anti-tumor activity on CEXF 773 tumors” value is reported as “induced tumor regression”; the “average tumor size versus IgG1-b12 and IgG1-b12-vcMMAE” value is recorded as “significantly smaller”. Also, in the series with MDA-MB-231 tumors, the “anti-tumor activity on MDA-MB-231 tumors” value is reported as “induced tumor regression”; the “average tumor size versus IgG1-b12 and IgG1-b12-vcMMAE” value was “significantly smaller”.

B7: IgG1-AXL-733-vcMMAE: anti-AXL antibody 733 (VH SEQ ID No 34, VL SEQ ID No 35) conjugated to vcMMAE (conjugate)
VH: QVQLVESGGGVVQPGRSLRLSCAASGFSFSTYAMHWVRQAPGKGLEWVAVISYDGDNKYSADSVKGRFTISRDNSKNTLYLQMNSLRAEDTAVYYCARGRKLGIDAFDIWGQGTMVTVSS
VL: AIQLTQSPSSLSASVGDRVTITCRASQGISSALAWYQQKPGKAPKLLIYDASSLESGVPSRFSGSGSGTDFTLTISGLQPEDFATYYCQQFNSYPFTFGPGTKVDIK
modifications: vc-MMAE conjugate; homo sapiens
Regarding B7, in series [2] (1 mg/kg single i.p.), the complete tumor reduction entry is recorded as “in some mice within these groups to complete tumor reduction” and the “tumor volume versus control IgG1-b12” value was “highly significant difference”. The “anti-tumor activity in established SC LCLC-103H tumors” value in series [2] is “induced tumor regression”. In the series with PAXF1657 tumors (2 mg/kg i.v., day 0), the “growth of PAXF1657 tumors compared to the control group” value was “significantly reduced the growth”. In the series on PAXF1657 tumors (4 mg/kg i.v., day 0), the “anti-tumor activity on PAXF1657 tumors” value was “induced tumor regression”. Besides, the “average tumor size versus isotype control IgG1-b12” value with PAXF1657 tumors (day 14, 2 mg/kg or 4 mg/kg, p<0.001 Tukey's multiple comparison test) is “significantly smaller”. In the series with A431 tumors, the “anti-tumor activity on A431 tumors” value is listed as “induced growth inhibition”.

The values above are taken from patent US20190233522A1, “NEW DOSAGE REGIMENS FOR ANTIBODY DRUG CONJUGATES BASED ON ANTI-AXL ANTIBODIES” (GENMAB A/S, priority 2016, published 2019).
